The target in this data set is Ipf1 (IPF1, Pdx1) (Mus musculus, UniProt P52946 SEQ:1-284). Description: EMSA; same mobility as IPF1 from betaTC1 nuclear extract; competition with wild-type and mutant P1 sites showed same specificity as endogenous IPF1. The note with it: tags: none; rabbit reticulocyte lysate from full-length cDNA in pGEM3. The method, then:
RNA prepared from the IPF1 cDNA template was translated in vitro and the DNA binding specificity of the in vitro translation product was determined using an electrophoretic mobility shift assay (EMSA) and the insulin promoter PI site as a probe (Ohisson et al., (1991) Mol Endocrin 5:897-904; see also Materials and Methods below). The in vitro translation product bound to the P1 element and migrated to the same relative position in the gel as IPF1 from the βTC1 nuclear extract.
In general terms: Mobility shift assays separate free from complexed probe on a gel.

Ipf1 (IPF1, Pdx1), sequence (P52946 other isoform, or with tags, fused parts or gaps): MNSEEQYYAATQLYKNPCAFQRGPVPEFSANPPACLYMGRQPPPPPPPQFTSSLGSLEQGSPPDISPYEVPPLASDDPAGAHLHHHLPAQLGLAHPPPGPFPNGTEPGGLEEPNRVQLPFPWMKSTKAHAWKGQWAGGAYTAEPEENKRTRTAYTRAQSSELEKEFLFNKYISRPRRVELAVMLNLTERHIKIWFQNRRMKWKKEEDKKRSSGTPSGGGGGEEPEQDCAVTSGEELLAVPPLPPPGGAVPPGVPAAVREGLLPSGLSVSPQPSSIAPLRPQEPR

B1: P1 wild-type insulin promoter element (dsDNA)
DNA 1: GCCCTTAATGGGCCAAACGGCA
DNA 2: TGCCGTTTGGCCCATTAAGGGC
In the case of B1, the binding result was “binds”.

The values above are taken from patent US20020082410, “Insulin promoter factor, and uses related thereto” (Curis, Inc., published 2002).
